Here are results for 4 substances from publication PMC12501226.

This assay deals with SARS-CoV-2 spike HexaPro protein (SARS-CoV-2). As to the kind of experiment: SPR. (In SPR one partner is held on a chip, and binding of the other changes the refractive index at the surface.)

The Kd is the concentration at which binding is half-saturated. A lower Kd goes with higher affinity. The term koff denotes a measure of how fast the partners let go of each other. A low value points to slow dissociation. Broadly, the kon is the rate constant with which the complex forms.

In turn, “ACE2 monomer (human extracellular ACE2 domain, residues 18-615, cut from ACE2-TEV-Fc) (from UniProt Q9BYF1 18-615) (domain or fragment)” returned a Kd of 49 nM, a koff of 0.0073 s⁻¹ and a kon of 150000 M⁻¹ s⁻¹. Regarding “T1A (collagen XVIII trimerization domain, 1-residue G/S linker, ACE2 18-615) (from UniProt P39060;Q9BYF1)”, the Kd is 0.1 nM. Regarding “T3A (collagen XVIII trimerization domain, 3-residue G/S linker, ACE2 18-615) (from UniProt P39060;Q9BYF1)”, the Kd worked out at 0.37 nM. On the same count and under the same terms, the value for “T5A (collagen XVIII trimerization domain, 5-residue G/S linker, ACE2 18-615) (from UniProt P39060;Q9BYF1)” was 0.69 nM.
